Source: publication PMC3365711 (The Journal of Biological Chemistry, 2012)

Molecular target: human HP1 CSDα (109–185) (human, UniProt P45973 109-185)
Test: other fluorescence titration

human HP1 CSDα (109–185), sequence (P45973 109-185): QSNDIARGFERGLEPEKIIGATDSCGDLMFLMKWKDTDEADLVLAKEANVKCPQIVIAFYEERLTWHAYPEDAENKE

Kd: 430 ± 100 nM
Binder: SKAGDLLFIEKVPVVVLEDILATKPSIAS (peptide, UniProt Q9QWF0 210-238, looked up) [CAF1 p150(210–238)]
